Numbered stars: 1 amine (or outer) side, 2 acyl side, 3 side chain; on linkers, the order of the positions; unused ones are H or OH. Square brackets hold non-standard residues; d marks the D form. Side chains are listed from the residue outwards. Ends that are not written are not given here. * marks the point of attachment. 4‑HPA = 4-hydroxyphenylacetic acid, O=C(Cc1ccc(O[*:3])cc1)[*:2]; C16 acyl = C16 fatty acyl group bound via a gamma-Glu spacer; γGlu = O=C(O)[C@H](CCC(=O)[*:2])N[*:1]; Desaminotyrosyl = O=C(CCc1ccc(O)cc1)*; Palmitoyl = CCCCCCCCCCCCCCCC(=O)*
T1: GIP receptor (UniProt P48546 22-466, limits assumed)
T1 sequence (looked up): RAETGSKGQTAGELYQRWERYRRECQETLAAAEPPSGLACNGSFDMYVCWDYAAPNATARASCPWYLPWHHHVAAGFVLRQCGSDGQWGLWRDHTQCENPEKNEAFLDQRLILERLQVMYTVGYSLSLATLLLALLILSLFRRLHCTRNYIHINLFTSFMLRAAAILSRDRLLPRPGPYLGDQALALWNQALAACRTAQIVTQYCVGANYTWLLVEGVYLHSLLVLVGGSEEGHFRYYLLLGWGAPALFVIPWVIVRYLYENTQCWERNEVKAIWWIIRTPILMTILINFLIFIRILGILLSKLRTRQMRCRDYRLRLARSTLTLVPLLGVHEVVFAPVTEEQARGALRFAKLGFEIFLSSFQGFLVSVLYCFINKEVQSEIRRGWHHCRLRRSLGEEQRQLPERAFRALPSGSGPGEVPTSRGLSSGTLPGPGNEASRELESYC

B1: peptide of SEQ ID NO: 144 (peptide)
peptide: Ac-[dY]AEGTFTSDK([γGlu-Palmitoyl])SKYLDERAAQDFVQWLLEAGPSSGAPPPS-NH2
SMILES: CCCCCCCCCCCCCCCC(=O)N[C@@H](CCC(=O)NCCCC[C@H](NC(=O)[C@H](CC(=O)O)NC(=O)[C@H](CO)NC(=O)[C@@H](NC(=O)[C@H](Cc1ccccc1)NC(=O)[C@@H](NC(=O)CNC(=O)[C@H](CCC(=O)O)NC(=O)[C@H](C)NC(=O)[C@@H](Cc1ccc(O)cc1)NC(C)=O)[C@@H](C)O)[C@@H](C)O)C(=O)N[C@@H](CO)C(=O)N[C@@H](CCCCN)C(=O)N[C@@H](Cc1ccc(O)cc1)C(=O)N[C@@H](CC(C)C)C(=O)N[C@@H](CC(=O)O)C(=O)N[C@@H](CCC(=O)O)C(=O)N[C@@H](CCCNC(=N)N)C(=O)N[C@@H](C)C(=O)N[C@@H](C)C(=O)N[C@@H](CCC(N)=O)C(=O)N[C@@H](CC(=O)O)C(=O)N[C@@H](Cc1ccccc1)C(=O)N[C@H](C(=O)N[C@@H](CCC(N)=O)C(=O)N[C@@H](Cc1c[nH]c2ccccc12)C(=O)N[C@@H](CC(C)C)C(=O)N[C@@H](CC(C)C)C(=O)N[C@@H](CCC(=O)O)C(=O)N[C@@H](C)C(=O)NCC(=O)N1CCC[C@H]1C(=O)N[C@@H](CO)C(=O)N[C@@H](CO)C(=O)NCC(=O)N[C@@H](C)C(=O)N1CCC[C@H]1C(=O)N1CCC[C@H]1C(=O)N1CCC[C@H]1C(=O)N[C@@H](CO)C(N)=O)C(C)C)C(=O)O
B2: peptide of SEQ ID NO: 145 (peptide)
peptide: XAEGTFTSDKSKYLDERAAQDFVQWLLEGGPSSGAPPPS
modifications: position 1 Des-NH2-Tyr (desamino L-Tyr); position 2 Ala; C-terminal amide; other non-coded or acylated residues as in the sequence listing
B3: peptide of SEQ ID NO: 148 (peptide)
peptide: Ac-[dH]AEGTFTSDK([γGlu-Palmitoyl])SKYLDERAAQDFVQWLLEGGPSSGAPPPS-NH2
SMILES: CCCCCCCCCCCCCCCC(=O)N[C@@H](CCC(=O)NCCCC[C@H](NC(=O)[C@H](CC(=O)O)NC(=O)[C@H](CO)NC(=O)[C@@H](NC(=O)[C@H](Cc1ccccc1)NC(=O)[C@@H](NC(=O)CNC(=O)[C@H](CCC(=O)O)NC(=O)[C@H](C)NC(=O)[C@@H](Cc1c[nH]cn1)NC(C)=O)[C@@H](C)O)[C@@H](C)O)C(=O)N[C@@H](CO)C(=O)N[C@@H](CCCCN)C(=O)N[C@@H](Cc1ccc(O)cc1)C(=O)N[C@@H](CC(C)C)C(=O)N[C@@H](CC(=O)O)C(=O)N[C@@H](CCC(=O)O)C(=O)N[C@@H](CCCNC(=N)N)C(=O)N[C@@H](C)C(=O)N[C@@H](C)C(=O)N[C@@H](CCC(N)=O)C(=O)N[C@@H](CC(=O)O)C(=O)N[C@@H](Cc1ccccc1)C(=O)N[C@H](C(=O)N[C@@H](CCC(N)=O)C(=O)N[C@@H](Cc1c[nH]c2ccccc12)C(=O)N[C@@H](CC(C)C)C(=O)N[C@@H](CC(C)C)C(=O)N[C@@H](CCC(=O)O)C(=O)NCC(=O)NCC(=O)N1CCC[C@H]1C(=O)N[C@@H](CO)C(=O)N[C@@H](CO)C(=O)NCC(=O)N[C@@H](C)C(=O)N1CCC[C@H]1C(=O)N1CCC[C@H]1C(=O)N1CCC[C@H]1C(=O)N[C@@H](CO)C(N)=O)C(C)C)C(=O)O

Target: T1, GIP receptor
Experiment: cell-based or functional assay

Point of comparison: B2, “EC50 at GIP Receptor (cAMP luciferase reporter, HEK293)” value 0.003 nM. Against it:
- Ac-YA[dQ]GTFTSDK([γGlu-Palmitoyl])SKYLDERAAQDFVQWLLEGGPSSGAPPPS-NH2 [peptide of SEQ ID NO: 158] — 23-fold higher, 0.069 nM
- [Desaminotyrosyl]AQGTFTSDYSKYLDERAAQDFVQWLLEGGPSSGAPPPSK(Palmitoyl)G-NH2 [peptide of SEQ ID NO: 157] — 20-fold higher, 0.059 nM
- [4‑HPA]AQGTFTSDK([γGlu-C16 acyl])SKYLDERAAQDFVQWLLEGGPSSGAPPPS-NH2 [peptide of SEQ ID NO: 156] — 14-fold higher, 0.042 nM
- Ac-[dH]AEGTFTSDK([γGlu-Palmitoyl])SKYLDERAAQDFVQWLLEAGPSSGAPPPS-NH2 [peptide of SEQ ID NO: 154] — 8-fold higher, 0.024 nM
- Ac-[dY]AQGTFTSDYSKYLDERAAQDFVQWLLEAGPSSGAPPPSK([γGlu-γGlu-Palmitoyl])G-NH2 [peptide of SEQ ID NO: 159] — 27-fold higher, 0.08 nM
- Ac-[dY]ALGTFTSDK([γGlu-Palmitoyl])SKYLDERAAQDFVQWLLEGGPSSGAPPPS-NH2 [peptide of SEQ ID NO: 142] — 1.5-fold lower, 0.002 nM
- B1 — the same, 0.003 nM
- Ac-[dH]AQGTFTSDK([γGlu-Palmitoyl])SKYLDERAAQDFVQWLLEAGPSSGAPPPS-NH2 [peptide of SEQ ID NO: 151] — 4.7-fold higher, 0.014 nM
- [Desaminotyrosyl]AQGTFTSDYSKYLDERAAQDFVQWLLEGGPSSGAPPPSK([γGlu-γGlu-Palmitoyl])G-NH2 [peptide of SEQ ID NO: 160] — 29-fold higher, 0.086 nM
- Ac-[dY]AQGTFTSDYSKYLDERAAQDFVQWLLEGGPSSGAPPPSK([γGlu-γGlu-Palmitoyl])G-NH2 [peptide of SEQ ID NO: 149] — 2.7-fold higher, 0.008 nM
- Ac-[dF]AQGTFTSDK([γGlu-Palmitoyl])SKYLDERAAQDFVQWLLEGGPSSGAPPPS-NH2 [peptide of SEQ ID NO: 150] — 3.7-fold higher, 0.011 nM

Target: T2, GLP-1 receptor (UniProt P43220 24-463, limits assumed)
Experiment: cell-based or functional assay

Point of comparison: Ac-[dY]AQGTFTSDYSKYLDERAAQDFVQWLLEGGPSSGAPPPSK([γGlu-γGlu-Palmitoyl])G-NH2 [peptide of SEQ ID NO: 149], “EC50 at GLP-1 Receptor (cAMP luciferase reporter, HEK293)” value 0.002 nM. Against it:
- [Desaminotyrosyl]AQGTFTSDYSKYLDERAAQDFVQWLLEGGPSSGAPPPSK(Palmitoyl)G-NH2 [peptide of SEQ ID NO: 157] — 6.5-fold higher, 0.013 nM
- [4‑HPA]AQGTFTSDK([γGlu-C16 acyl])SKYLDERAAQDFVQWLLEGGPSSGAPPPS-NH2 [peptide of SEQ ID NO: 156] — the same, 0.002 nM
- B3 — the same, 0.002 nM
- Ac-[dH]AEGTFTSDK([γGlu-Palmitoyl])SKYLDERAAQDFVQWLLEAGPSSGAPPPS-NH2 [peptide of SEQ ID NO: 154] — 2-fold higher, 0.004 nM
- Ac-[dY]AQGTFTSDYSKYLDERAAQDFVQWLLEAGPSSGAPPPSK([γGlu-γGlu-Palmitoyl])G-NH2 [peptide of SEQ ID NO: 159] — 4.5-fold higher, 0.009 nM
- Ac-[dY]ALGTFTSDK([γGlu-Palmitoyl])SKYLDERAAQDFVQWLLEGGPSSGAPPPS-NH2 [peptide of SEQ ID NO: 142] — 2.5-fold higher, 0.005 nM
- B1 — 8.5-fold higher, 0.017 nM
- Ac-[dH]AQGTFTSDK([γGlu-Palmitoyl])SKYLDERAAQDFVQWLLEAGPSSGAPPPS-NH2 [peptide of SEQ ID NO: 151] — the same, 0.002 nM
- [Desaminotyrosyl]AQGTFTSDYSKYLDERAAQDFVQWLLEGGPSSGAPPPSK([γGlu-γGlu-Palmitoyl])G-NH2 [peptide of SEQ ID NO: 160] — 11-fold higher, 0.022 nM
- Ac-[dF]AQGTFTSDK([γGlu-Palmitoyl])SKYLDERAAQDFVQWLLEGGPSSGAPPPS-NH2 [peptide of SEQ ID NO: 150] — the same, 0.002 nM

Target: T3, glucagon receptor (UniProt P47871 26-477, limits assumed)
Experiment: cell-based or functional assay

T3 sequence (P47871 26-477 limits assumed): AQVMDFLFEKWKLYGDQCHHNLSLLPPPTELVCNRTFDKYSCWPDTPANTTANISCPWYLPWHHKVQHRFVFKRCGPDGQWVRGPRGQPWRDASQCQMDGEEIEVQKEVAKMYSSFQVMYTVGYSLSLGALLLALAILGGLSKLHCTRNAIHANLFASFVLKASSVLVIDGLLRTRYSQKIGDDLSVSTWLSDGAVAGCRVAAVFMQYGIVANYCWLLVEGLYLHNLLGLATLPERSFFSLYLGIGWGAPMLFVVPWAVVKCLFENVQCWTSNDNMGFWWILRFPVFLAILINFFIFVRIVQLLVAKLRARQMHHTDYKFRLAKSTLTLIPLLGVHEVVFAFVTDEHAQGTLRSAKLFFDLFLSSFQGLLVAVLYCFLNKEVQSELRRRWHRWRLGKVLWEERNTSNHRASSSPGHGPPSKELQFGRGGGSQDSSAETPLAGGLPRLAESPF

Point of comparison: B1, “EC50 at Glucagon Receptor (cAMP luciferase reporter, HEK293)” value 1.3 nM. Against it:
- [Desaminotyrosyl]AQGTFTSDYSKYLDERAAQDFVQWLLEGGPSSGAPPPSK(Palmitoyl)G-NH2 [peptide of SEQ ID NO: 157] — 28-fold lower, 0.047 nM
- [4‑HPA]AQGTFTSDK([γGlu-C16 acyl])SKYLDERAAQDFVQWLLEGGPSSGAPPPS-NH2 [peptide of SEQ ID NO: 156] — 120-fold lower, 0.011 nM
- B3 — 7.3-fold lower, 0.178 nM
- Ac-[dH]AEGTFTSDK([γGlu-Palmitoyl])SKYLDERAAQDFVQWLLEAGPSSGAPPPS-NH2 [peptide of SEQ ID NO: 154] — 1.5-fold lower, 0.847 nM
- Ac-[dY]AQGTFTSDYSKYLDERAAQDFVQWLLEAGPSSGAPPPSK([γGlu-γGlu-Palmitoyl])G-NH2 [peptide of SEQ ID NO: 159] — 32-fold lower, 0.04 nM
- Ac-[dY]ALGTFTSDK([γGlu-Palmitoyl])SKYLDERAAQDFVQWLLEGGPSSGAPPPS-NH2 [peptide of SEQ ID NO: 142] — 13-fold lower, 0.103 nM
- Ac-[dH]AQGTFTSDK([γGlu-Palmitoyl])SKYLDERAAQDFVQWLLEAGPSSGAPPPS-NH2 [peptide of SEQ ID NO: 151] — 430-fold lower, 0.003 nM
- [Desaminotyrosyl]AQGTFTSDYSKYLDERAAQDFVQWLLEGGPSSGAPPPSK([γGlu-γGlu-Palmitoyl])G-NH2 [peptide of SEQ ID NO: 160] — 27-fold lower, 0.049 nM
- B2 — 2.9-fold higher, 3.73 nM
- Ac-[dY]AQGTFTSDYSKYLDERAAQDFVQWLLEGGPSSGAPPPSK([γGlu-γGlu-Palmitoyl])G-NH2 [peptide of SEQ ID NO: 149] — 110-fold lower, 0.012 nM
- Ac-[dF]AQGTFTSDK([γGlu-Palmitoyl])SKYLDERAAQDFVQWLLEGGPSSGAPPPS-NH2 [peptide of SEQ ID NO: 150] — 93-fold lower, 0.014 nM

Target: T1, GIP receptor
Experiment: cell-based or functional assay
Remark: another data set of the same source

With Ac-[dY]AQGTFTSDK([γGlu-Palmitoyl])SKYLDERAAQDFVQWLLDAGPSSGAPPPS-NH2 [peptide of SEQ ID NO: 143] the “EC50 at GIP Receptor (cAMP luciferase reporter, HEK293)” value was 0.003 nM.

Target: T2, GLP-1 receptor
Experiment: cell-based or functional assay
Remark: another data set of the same source

With Ac-[dY]AQGTFTSDK([γGlu-Palmitoyl])SKYLDERAAQDFVQWLLDAGPSSGAPPPS-NH2 [peptide of SEQ ID NO: 143] the “EC50 at GLP-1 Receptor (cAMP luciferase reporter, HEK293)” value was 0.003 nM.

Target: T3, glucagon receptor
Experiment: cell-based or functional assay
Remark: another data set of the same source

With Ac-[dY]AQGTFTSDK([γGlu-Palmitoyl])SKYLDERAAQDFVQWLLDAGPSSGAPPPS-NH2 [peptide of SEQ ID NO: 143] the “EC50 at Glucagon Receptor (cAMP luciferase reporter, HEK293)” value was 0.004 nM.

From patent US20180105569A1 (INDIANA UNIVERSITY RESEARCH AND TECHNOLOGY, published 2018)
